Results from patent US20170369592A1, “NOVEL ANTI-FIBROBLAST ACTIVATION PROTEIN (FAP) ANTIBODIES AND USES DERIVED THEREOF” (Mabimmune Diagnostics AG, priority 2015, published 2017).

Target: T1, FAP (Homo sapiens, UniProt Q12884)
T1 sequence (Q12884 1-760): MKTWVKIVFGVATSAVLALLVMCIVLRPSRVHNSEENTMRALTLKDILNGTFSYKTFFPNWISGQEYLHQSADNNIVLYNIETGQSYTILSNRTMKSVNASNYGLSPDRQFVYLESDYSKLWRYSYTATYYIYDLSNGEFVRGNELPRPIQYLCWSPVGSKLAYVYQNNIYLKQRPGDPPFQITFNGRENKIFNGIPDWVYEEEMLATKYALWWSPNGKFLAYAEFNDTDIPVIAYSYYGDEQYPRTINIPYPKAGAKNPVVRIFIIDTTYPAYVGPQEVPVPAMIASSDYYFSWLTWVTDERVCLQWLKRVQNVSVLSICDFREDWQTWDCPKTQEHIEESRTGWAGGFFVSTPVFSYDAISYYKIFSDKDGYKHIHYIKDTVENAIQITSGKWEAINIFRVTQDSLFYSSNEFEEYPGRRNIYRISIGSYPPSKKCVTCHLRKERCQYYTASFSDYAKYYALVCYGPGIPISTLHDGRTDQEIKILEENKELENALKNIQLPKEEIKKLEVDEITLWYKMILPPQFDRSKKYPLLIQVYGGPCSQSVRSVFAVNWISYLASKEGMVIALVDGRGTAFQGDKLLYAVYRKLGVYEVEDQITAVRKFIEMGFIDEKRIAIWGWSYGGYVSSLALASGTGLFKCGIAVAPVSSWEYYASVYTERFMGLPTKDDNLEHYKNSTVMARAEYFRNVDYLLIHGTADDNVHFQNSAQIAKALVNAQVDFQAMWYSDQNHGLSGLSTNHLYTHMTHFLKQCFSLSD
Assay: Binding specificity ELISA versus CD26 and unrelated human antigens
Settings: detection antibody at 20, 4 and 0.8 nM
Description: A mouse anti-6×-histidine tag antibody (Clonetech) was coated at a concentration of 3 μg/ml in PBS to a 96 well ELISA plate, the plates were then blocked with 5% BSA in PBS, and enzymatically active recombinant human FAP with an N-terminus 6× histidine tag was added to the plates to be captured. The binding efficiency of NI-206.82C2 (at 20 nM, 4 nM, and 0.8 nM) against sFAP was then tested by 1 hour incubation, followed by washing with PBS and detection with an HRP-labelled goat anti-human antibody (Jackson Immunoresearch) using a colormetric assay. To assess NI-206.82C2 binding other targets, recombinant human CD26 and fourteen other unrelated recombinant human proteins (A-N) were individually added to a 96-well ELISA plate in triplicate, and the binding efficacy of NI-206.82C2 was evaluated. (FIG. 7A)

B1: NI-206.82C2: recombinant human memory B cell-derived monoclonal anti-FAP IgG1 antibody, variable regions in FIG. 1A, FAP inhibitory (antibody, V domains shown)
VH: QVQLQQSGPGLVKPSQTLSLTCAISGDSVSSNSVTWNWIRQSPSRGLEWLGRTYYRSKWYNDYAVSVKGRITINPDTSKNQFYLQLKSVTPEDAAVYYCARDSSILYGDYWGQGTLVTVSS
VL: QAVLTQPSSLSASPGASASLTCTLPSGINVGTYRIFWFQQKPGSPPQYLLSYKSDSDNHQGSGVPSRFSGSKDASANAGILLISGLQSEDEADYYCMIWHSSAWVFGGGTKLTVL
With B1 the “colorimetric signal against recombinant human FAP versus CD26 and unrelated human antigens” value was “significantly greater”.
